The target of assay [1] is Dimeric kinesin K401-BIO-H6 (Drosophila | E. coli) (UniProt P17210). Briefly: mass photometry.
For assay [2], the target named is Streptavidin (UniProt P22629). Briefly: mass photometry.

Where “and” joins values, the source holds several entries; their conditions need not be identical. Equal values may be shown once.

Streptavidin, sequence (P22629 25-183): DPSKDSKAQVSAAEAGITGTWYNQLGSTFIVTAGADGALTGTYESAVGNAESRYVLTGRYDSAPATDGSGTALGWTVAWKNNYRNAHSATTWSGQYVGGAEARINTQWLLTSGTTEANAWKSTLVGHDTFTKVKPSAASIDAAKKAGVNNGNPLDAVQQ

The substance “Dimeric kinesin K401-BIO-H6 (from UniProt P17210 1-401)” showed a stoichiometry N in assay [1] of 2. In addition, in assay [2], the stoichiometry N (kinesin dimers per streptavidin tetramer) is 1 and 2 and 3.

The record behind these values is publication doi:10.1101/2023.12.21.572878.
